Source: article PMC13367182

Tests used:
[1] = target: mononucleosome with deletion of the histone H3 tail (human) (UniProt P04908); experiment: AlphaScreen or HTRF
[2] = target: mononucleosome with deletion of the histone H4 tail (human) (UniProt P04908); experiment: AlphaScreen or HTRF

**Q.** Which decrease in the bridging signal against native nucleosomes [1] does the source give for “HIV-1 intasome assembled in the presence of LEDGF/p75 (from UniProt O75475 1-530) (complex)” here?
**A.** 20%

**Q.** What about the decrease in the bridging signal against native nucleosomes [2] of the same substance?
**A.** 20%
